This passage reports stoichiometry N results from publication PMC7004846.

The assay concerns the target Aquifex aeolicus VF5 Wzt carbohydrate-binding domain (residues 235-395), long construct (Aquifex aeolicus VF5). The experiment in a line: SEC. In general terms: Size exclusion chromatography separates by hydrodynamic size, large species first.

“Aquifex aeolicus VF5 Wzt carbohydrate-binding domain (residues 235-395), long construct (domain or fragment)”: the stoichiometry N (usually a count of units in the complex or per binding partner) was found to be 2.
